Biological target: T1, Recombinant human ACSS2 (human, UniProt Q9NR19 1-701)
T1 construct: Recombinant human ACSS2, immobilised on a CM5 chip for SPR
Assay: SPR; Biacore 8K, 25 °C, HBS-EP running buffer; ACSS2 amine-coupled to a CM5 chip (5 µg/mL in 10 mM sodium acetate pH 5.5); AATF injected at 12.5-400 nM; multi-cycle, 120 s association, 120 s dissociation, 30 µL/min
Details: both partners purified

T1 sequence (Q9NR19 whole entry): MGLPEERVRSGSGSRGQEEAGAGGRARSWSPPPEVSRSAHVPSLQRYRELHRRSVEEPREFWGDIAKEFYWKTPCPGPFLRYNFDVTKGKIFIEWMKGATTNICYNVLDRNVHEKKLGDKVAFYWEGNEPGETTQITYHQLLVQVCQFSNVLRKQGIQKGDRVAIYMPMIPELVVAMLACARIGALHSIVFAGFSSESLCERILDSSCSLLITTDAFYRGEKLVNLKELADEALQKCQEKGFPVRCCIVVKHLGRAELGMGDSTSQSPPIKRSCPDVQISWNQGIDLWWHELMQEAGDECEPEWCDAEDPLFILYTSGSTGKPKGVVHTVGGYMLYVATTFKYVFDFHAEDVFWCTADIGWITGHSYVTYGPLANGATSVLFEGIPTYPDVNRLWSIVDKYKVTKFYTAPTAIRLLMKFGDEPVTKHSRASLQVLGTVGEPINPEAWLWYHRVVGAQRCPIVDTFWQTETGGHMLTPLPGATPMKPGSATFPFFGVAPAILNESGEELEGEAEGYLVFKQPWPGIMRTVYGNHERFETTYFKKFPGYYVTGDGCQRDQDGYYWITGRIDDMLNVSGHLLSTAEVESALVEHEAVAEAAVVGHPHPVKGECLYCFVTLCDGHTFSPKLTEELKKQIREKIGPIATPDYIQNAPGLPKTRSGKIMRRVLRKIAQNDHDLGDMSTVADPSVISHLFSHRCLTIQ

- Kd: 33.3 ± 1.7 nM
B1: Recombinant human AATF (natural protein, UniProt Q9NY61 1-560, looked up)
chain: MAGPQPLALQLEQLLNPRPSEADPEADPEEATAARVIDRFDEGEDGEGDFLVVGSIRKLASASLLDTDKRYCGKTTSRKAWNEDHWEQTLPGSSDEEISDEEGSGDEDSEGLGLEEYDEDDLGAAEEQECGDHRESKKSRSHSAKTPGFSVQSISDFEKFTKGMDDLGSSEEEEDEESGMEEGDDAEDSQGESEEDRAGDRNSEDDGVVMTFSSVKVSEEVEKGRAVKNQIALWDQLLEGRIKLQKALLTTNQLPQPDVFPLFKDKGGPEFSSALKNSHKALKALLRSLVGLQEELLFQYPDTRYLVDGTKPNAGSEEISSEDDELVEEKKQQRRRVPAKRKLEMEDYPSFMAKRFADFTVYRNRTLQKWHDKTKLASGKLGKGFGAFERSILTQIDHILMDKERLLRRTQTKRSVYRVLGKPEPAAQPVPESLPGEPEILPQAPANAHLKDLDEEIFDDDDFYHQLLRELIERKTSSLDPNDQVAMGRQWLAIQKLRSKIHKKVDRKASKGRKLRFHVLSKLLSFMAPIDHTTMNDDARTELYRSLFGQLHPPDEGHGD
notes: Recombinant human AATF, the analyte in SPR; also called Che-1
